Target: CGRP receptor (CALCRL:RAMP1) on CALCRL:RAMP1-CRE-bla Freestyle 293F cells (UniProt Q16602 23-461; O60894 27-148, limits assumed)
Experiment: cell-based or functional assay

Chain of CGRP receptor (CALCRL:RAMP1) on CALCRL:RAMP1-CRE-bla Freestyle 293F cells (Q16602 23-461 limits assumed, chain 1 of 2): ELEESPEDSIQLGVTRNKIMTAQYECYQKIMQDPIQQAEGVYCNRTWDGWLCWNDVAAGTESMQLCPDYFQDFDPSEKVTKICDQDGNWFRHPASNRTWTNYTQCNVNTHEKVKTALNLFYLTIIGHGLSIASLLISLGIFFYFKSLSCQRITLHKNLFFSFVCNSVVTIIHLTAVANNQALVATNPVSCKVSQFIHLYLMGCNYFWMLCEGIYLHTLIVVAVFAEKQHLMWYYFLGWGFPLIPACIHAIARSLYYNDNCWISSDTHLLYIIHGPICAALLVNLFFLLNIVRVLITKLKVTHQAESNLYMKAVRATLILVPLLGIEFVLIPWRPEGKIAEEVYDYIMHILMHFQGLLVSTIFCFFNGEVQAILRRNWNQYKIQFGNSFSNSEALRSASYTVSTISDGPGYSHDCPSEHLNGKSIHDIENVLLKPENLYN
Chain of CGRP receptor (CALCRL:RAMP1) on CALCRL:RAMP1-CRE-bla Freestyle 293F cells (O60894 27-148 limits assumed, chain 2 of 2): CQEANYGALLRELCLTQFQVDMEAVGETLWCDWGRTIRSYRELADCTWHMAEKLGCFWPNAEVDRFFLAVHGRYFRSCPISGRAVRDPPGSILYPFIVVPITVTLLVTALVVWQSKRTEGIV

H-ACDTATCVLGRLSQELHRLQTYPRTNVGSKAF-NH2 (ends and bridges not checked) [ACX017 (SEQ ID NO:1)]
percent activation of the CGRP receptor (CALCRL:RAMP1-CRE-bla Freestyle 293F agonist screen), EC50: ~105 nM

From US20160207975A1 (published 2016)
